According to publication PMC5816164 (Proceedings of the National Academy of Sciences of the …, 2018):
Bridge positions count the residues as written; N and C are the ends. Ends that are not written are not given here.

What was measured:
mice hippocampi = experiment: Acetylcholine quantification in hippocampus after microinjection; format: in vivo, mouse
thoracic aorta = system: thoracic aorta; set-up: species or system Sprague-Dawley rats
C57BL/6J mice = experiment: Microinjection into the hippocampus of mice; format: in vivo, mouse; conditions: 1 μL of 20 μM SsTx and 40 μM retigabine mixture in the hippocampus
bronchial rings = system: bronchial rings; set-up: species or system Sprague-Dawley rats
KCNQ4 = KCNQ4 (Homo sapiens, UniProt P56696); experiment: Whole-cell patch clamp of KCNQ4 currents in HEK293T cells; format: cell-based; conditions: for effect of alanine substitution on inhibition of KCNQ4: 10 μM and 50 μM toxin mutants compared with WT SsTx (Fig. 2 A and B); for effect of conservative replacement on inhibition of KCNQ channels: 10 μM toxin, KCNQ4 currents (Fig. S2D)
KCNQ4_D266G = KCNQ4_D266G (UniProt P56696)
KCNQ4_D288A = KCNQ4_D288A (UniProt P56696)
KCNQ4_D288A, sequence (P56696 whole entry D288A): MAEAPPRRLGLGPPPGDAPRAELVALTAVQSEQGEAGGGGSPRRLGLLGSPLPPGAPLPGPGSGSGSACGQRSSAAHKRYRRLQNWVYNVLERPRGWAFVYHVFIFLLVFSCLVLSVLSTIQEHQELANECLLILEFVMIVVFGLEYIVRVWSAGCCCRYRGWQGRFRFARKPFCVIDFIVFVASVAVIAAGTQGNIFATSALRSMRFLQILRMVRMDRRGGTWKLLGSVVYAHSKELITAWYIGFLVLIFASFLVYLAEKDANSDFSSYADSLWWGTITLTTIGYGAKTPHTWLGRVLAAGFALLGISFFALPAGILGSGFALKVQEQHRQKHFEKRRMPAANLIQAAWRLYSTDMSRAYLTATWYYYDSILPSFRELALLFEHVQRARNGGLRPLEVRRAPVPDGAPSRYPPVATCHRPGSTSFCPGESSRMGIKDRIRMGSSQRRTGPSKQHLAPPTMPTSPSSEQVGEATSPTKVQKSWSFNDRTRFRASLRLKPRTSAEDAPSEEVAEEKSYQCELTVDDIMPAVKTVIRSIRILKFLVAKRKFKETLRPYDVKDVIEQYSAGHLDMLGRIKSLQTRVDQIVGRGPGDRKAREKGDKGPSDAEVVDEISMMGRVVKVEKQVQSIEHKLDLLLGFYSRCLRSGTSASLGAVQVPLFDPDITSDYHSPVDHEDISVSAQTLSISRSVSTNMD

KCNQ4, sequence (P56696 whole entry): as the sequence (P56696 whole entry D288A) above, with A288D counted along it
KCNQ4_D266G, sequence (P56696 whole entry D266G): as the sequence (P56696 whole entry D288A) above, with D266G, A288D counted along it

`O=C1N(c2ccccc2)c2ccccc2C1(Cc1ccncc1)Cc1ccncc1` [linopirdine] was tested. Which “increase of acetylcholine concentration” value (mice hippocampi; mice hippocampi, 1 μL of 100 μM, 30 min after microinjection, n = 6) did it give?
Its value is ~81.8%.

Which “effect on vessel toxicity induced by centipede crude venom and SsTx” value (thoracic aorta) does the source give for `CCOC(=O)Nc1ccc(NCc2ccc(F)cc2)cc1N` [retigabine] here?
Its value is “significantly reduced”.

And the “effect on SsTx-induced seizure” value (C57BL/6J mice)?
The value was “inhibited”.

What about the “effect on SsTx-induced increase in acetylcholine secretion” value (mice hippocampi; mixture of 10 μM SsTx and 40 μM RTG, n = 3) of the same molecule?
Its value is “inhibited the SsTx-induced increase in spiking frequency and acetylcholine secretion”.

And the “effect on bronchial ring contraction induced by crude venom or SsTx” value (bronchial rings)?
Its value is “contraction can be reduced by retigabine”.

For “K10A: SsTx single point mutant, alanine substitution of K10 (EVIKKDTPYAKRKFPYKSECLKACATSFTGGDESRIQEGKPGFFKCTCYFTTG)”, which “effect of alanine substitution on inhibition of KCNQ4” value (shortened to “effect … on inhibition of KCNQ4”) (KCNQ4) is on record?
The value was “reduces the toxin’s inhibitory effect on KCNQ4”.

“K11A: SsTx single point mutant, alanine substitution of K11 (EVIKKDTPYKARKFPYKSECLKACATSFTGGDESRIQEGKPGFFKCTCYFTTG)” was tested. Which “effect … on inhibition of KCNQ4” value (KCNQ4) did it give?
Its value is “reduces the toxin’s inhibitory effect on KCNQ4”.

For “K13A: SsTx single point mutant, alanine substitution of K13 (EVIKKDTPYKKRAFPYKSECLKACATSFTGGDESRIQEGKPGFFKCTCYFTTG; ends and bridges not checked; cysteine pairing not given here)”, which “effect … on inhibition of KCNQ4” value (KCNQ4) is on record?
The value was “reduces the toxin’s inhibitory effect on KCNQ4”.

Which “effect of conservative replacement on inhibition of KCNQ channels” value (KCNQ4) does the source give for “K13R: SsTx point mutant, lysine 13 replaced with arginine (EVIKKDTPYKKRRFPYKSECLKACATSFTGGDESRIQEGKPGFFKCTCYFTTG; ends and bridges not checked; cysteine pairing not given here)” here?
Its value is “minimal influence on SsTx inhibition of KCNQ channels”.

How did the “effect … on inhibition of KCNQ4” value (KCNQ4) turn out when “R12A: SsTx single point mutant, alanine substitution of R12 (EVIKKDTPYKKAKFPYKSECLKACATSFTGGDESRIQEGKPGFFKCTCYFTTG; ends and bridges not checked; cysteine pairing not given here)” was run?
The value was “reduces the toxin’s inhibitory effect on KCNQ4”.

“R12K: SsTx point mutant, arginine 12 replaced with lysine (EVIKKDTPYKKKKFPYKSECLKACATSFTGGDESRIQEGKPGFFKCTCYFTTG; ends and bridges not checked; cysteine pairing not given here)” was tested. Which “effect of conservative replacement on inhibition of KCNQ channels” value (KCNQ4) did it give?
The value was “minimal influence on SsTx inhibition of KCNQ channels”.

B1: Ssm Spooky Toxin (SsTx) (peptide)
chain: EVIKKDTPYKKRKFPYKSECLKACATSFTGGDESRIQEGKPGFFKCTCYFTTG
modifications: disulfide 20-46, 24-48
With B1 as the molecule, how does the inhibitory activity lost in the presence of 10 μM SsTx, against WT KCNQ4 (KCNQ4_D266G) read?
The inhibitory activity lost in the presence of 10 μM SsTx, against WT KCNQ4 was 99%.

And the inhibitory activity lost in the presence of 10 μM SsTx, against WT KCNQ4 (KCNQ4_D288A)?
The inhibitory activity lost in the presence of 10 μM SsTx, against WT KCNQ4 was 97%.
